For 1 substance, MT1-MMP tyrosine phosphorylation results are on record in patent US20110212091.

Data set [1] deals with FGFR4 G388, V5-His tagged (FGFR4G388-V5-His).
Data set [2] deals with FGFR4 R388, V5-His tagged (FGFR4R388-V5-His).

As for HA-tagged MT1-MMP, the MT1-MMP tyrosine phosphorylation entry in data set [1] and in data set [2] was “repeatedly detected” each time.
